Laboratory results: publication PMC5624674 (2017)

B1: λCI-ZipACTD (residues 186–328) [E. coli] / α-FtsZ fusion protein (wild-type E. coli FtsZ) [E. coli] (parent complex)
chain 1: not shown
chain 2: MFEPMELTNDAVIKVIGVGGGGGNAVEHMVRERIEGVEFFAVNTDAQALRKTAVGQTIQIGSGITKGLGAGANPEVGRNAADEDRDALRAALEGADMVFIAAGMGGGTGTGAAPVVAEVAKDLGILTVAVVTKPFNFEGKKRMAFAEQGITELSKHVDSLITIPNDKLLKVLGRGISLLDAFGAANDVLKGAVQGIAELITRPGLMNVDFADVRTVMSEMGYAMMGSGVASGEDRAEEAAEMAISSPLLEDIDLSGARGVLVNITAGFDLRLDEFETVGNTIRAFASDNATVVIGTSLDPDMNDELRVTVVATGIGMDKRPEITLVTNKQVQQPVMDRYQQHGMAPLTQEQKPVAKVVNDNAPQTAKEPDYLDIPAFLRKQAD

Variants of: B1
Experiment: bacterial two-hybrid β-galactosidase assay; 25 μM IPTG; parent: 720; read off a plot

Question: chain 2 D180N was tested. Which response did it give?
Answer: ~770 Miller Units

Question: chain 2 L179R was tested. Which response did it give?
Answer: ~880 Miller Units

Question: With chain 2 F182S as the variant, how does the response read?
Answer: ~770 Miller Units

Question: chain 2 S177P was tested. Which response did it give?
Answer: ~790 Miller Units

Question: chain 2 L169P was tested. Which response did it give?
Answer: ~790 Miller Units
